Measured values published in patent US20150216948A1, “CYTOCHROME P450 SUICIDE GENE SYSTEM” (priority 2012, published 2015).
Read-outs that look alike come from different tables or passages of the source.

How the values were obtained:
[1] = test system: HepG2 cells; assay: Half-life of CYP4B1/EGFP fusion proteins after cycloheximide (western blot, FACS); type: cell-based, human; conditions: EGFP fusion; for protein half-life: 50 μg/ml cycloheximide, G418-selected HepG2 cells
Protocol: FIGS. 3 C and D show CYP4B1 stability as analysed by western blotting and by flow cytometry. The studies on protein expression and stability were performed with the rabbit and human CYP4B1/EGFP fusion construction in the lentiviral vector with the additional IRES-neomycin cassette. Half-life analysis was performed by adding 50 μg/ml cycloheximide to the transduced and G418-selected HepG2 cells. Samples were collected at the indicated time points.
(§1) Next, it was analyzed whether the different activities of the human and the rabbit proteins in processing 4-IPO could be explained by differences in protein half-life. However, as no antibody was available that can detect both CYP4B1 proteins, EGFP fusion constructs were generated. With these constructs, EGFP antibodies can be utilized to visualize and compare the expression levels and the half-lives of the fusion proteins in cells by western blots. EGFP expression can also be used for flow cytometry assessment of the expression levels due to the fluorescent properties of the fusion proteins. 5′- and 3′-fusions of EGFP with the native rabbit P422 and the human P427 CYP4B1 proteins were cloned in LV vectors with an IRES-NEO (NEO=neomycin phosphotransferase cDNA, npt II) and stably expressed in HepG2 cells (FIG. 3 B). For comparison, the corresponding IRES-EGFP constructs were also included, as these vectors had already been used in previous experiments and activity measurements thus already existed. Transduced cells were incubated for 24, 48 and 72 hours with increasing concentration of 4-IPO. Cultures were then harvested, cells stained with propidium iodine and subsequently analyzed for survival of transduced EGFP+ cells by flow cytometry (FIG. 3 A).
After standard inhibition of de novo protein synthesis by cycloheximide, the half-life of the CYP4B1 proteins in stably transduced and G418-resistant HepG2 cells was assessed by determining the protein expression levels over time either in western blotting or in FACS analysis as EGFP fluorescence. […] For the human native protein (h-S427), the mean fluorescence indicates a short average half-life of only 6 hours.

[2] = test system: HepG2 cells; assay: 4-IPO toxicity assay: survival of transduced HepG2 cells by flow cytometry (propidium iodine); type: cell-based, human; conditions: for 4-IPO processing activity / cell killing (in words): transduced cells challenged with 4-IPO
Excerpt: Initially, the serine at position 427 in the human CYP4B1 was mutated back to proline (h-P427), which is present at this position in all CYP4B1 proteins. Additionally a proline to serine exchange was created in the native rabbit CYP4B1 enzyme at the corresponding position 422 (r-P422). To immediately exclude the possibility that the different activities between human and the rabbit protein isoforms are simply due to differences in mRNA stability, the human CYP4B1 cDNA (SEQ ID NO.: 2) was optimized for human-codon usage (SEQ ID NO.: 3) by de novo synthesis with silent mutagenesis of the cDNA, thus removing internal TATA-boxes, instability motives, RNA secondary structures and (cryptic) splice donor/acceptor sites and ensuring an average GC content of around 60%. All cDNAs were cloned into the same lentiviral (LV) HIV1-based expression vector and LV supernatants produced by plasmid transfection in HEK293T cells. Subsequently, the two rabbit and the four human cDNAs were stably expressed in the human liver cell line HepG2. Stably expressing transduced cells were challenged after five days with increasing concentrations of 4-IPO for 24, 48 and 72 hours and then the survival of cells analyzed by flow cytometry using propidium iodine for live/dead cell discrimination.
as §1

[3] = test system: primary human T-cells; assay: 4-IPO toxicity in transduced primary T-cells; type: cell-based; conditions: 24 h and 72 h exposure to increasing doses of 4-IPO, EGFP fusions, FIG. 7 B
Excerpt: Compared to the HepG2 liver cells, primary T-cells might not provide an optimal environment for the function of P450 cytochromes (although the necessary reductase is ubiquitously expressed) and the infection of primary T-cells is considerably more complex.
The T cells were isolated by Ficoll and stimulated with CD3, CD28 and IL2 for 3 days before they were infected with lentiviral vectors using fibronectin. For optimal toxicity in T cells, the suicide genes were not expressed as EGFP fusions proteins but a IRES-EGFP-WPRO vector construct was used. […] However, after 24 hours over 70% of the transgenic T cells were eliminated by CYP4B1 P427 mut12. […] The determination of the virus titer was based on the titration of the reference cell line HT1080.

[4] = relative to rabbit CYP4B1, cited from earlier work

B1: r-P422: wildtype rabbit CYP4B1 enzyme (protein, listed as Oryctolagus cuniculus)
chain: MLGFLSRLGLWASGLILILGFLKLLRLLLRRQRLARAMDSFPGPPTHWLFGHALEIQKTGSLDKVVTWTQQFPYAHPLWVGQFIGFLNIYEPDYAKAVYSRGDPKAPDVYDFFLQWIGKGLLVLDGPKWFQHRKLLTPGFHYDVLKPYVAIFADSTRIMLEKWEKKACEGKSFDIFSDVGHMALDTLMKCTFGKGDSGLNHRDSSYYVAVSELTLLMQQRIDSFQYHNDFIYWLTPHGRRFLRACRAAHDHTDRVIRQRKAALQDEKEREKIQNRRHLDFLDILLDVRGESGVQLSDTDLRAEVDTFMFEGHDTTTSGISWFLYCMALYPEHQQRCREEVREILGDQDSFQWEDLAKMTYLTMCMKECFRLYPPVPQVYRQLSKPVSFVDGRSLPAGSLISLHIYALHRNSDVWPDPEVFDPLRFSPENSSGRHPYAFIPFSAGPRNCIGQQFAMNEMKVVTALCLLRFEFSVDPLRLPIKLPQLVLRSKNGIHLYLKPLGPK
- protein stability (in words) ([1]; cycloheximide, HepG2 cells): strongest protein stability
- transduced HepG2 cells eliminated / dead ([2]; after 24 hours of 4-IPO treatment, FIG. 2): over 95%
- killing of primary T-cells with 4-IPO (in words) [3]: more active than the native P427 and the human codon-optimized P427 CYP4B1 enzymes

B2: h-P427: human CYP4B1 with serine at position 427 mutated back to proline (protein)
chain: MVPSFLSLSFSSLGLWASGLILVLGFLKLIHLLLRRQTLAKAMDKFPGPPTHWLFGHALEIQETGSLDKVVSWAHQFPYAHPLWFGQFIGFLNIYEPDYAKAVYSRGDPKAPDVYDFFLQWIGKGLLVLDGPKWFQHRKLLTPGFHYDVLKPYVAIFADSTRIMLEKWEKKACEGKSFDIFSDVGHMALDTLMKCTFGKGDSGLNHRDSSYYVAVSELTLLMQQRIDSFQYHNDFIYWLTPHGRRFLRACQVAHDHTDQVIRERKAALQDEKVRKKIQNRRHLDFLDILLGARDEDDIKLSDADLRAEVDTFMFEGHDTTTSGISWFLYCMALYPEHQHRCREEVREILGDQDFFQWDDLGKMTYLTMCIKESFRLYPPVPQVYRQLSKPVTFVDGRSLPAGSLISMHIYALHRNSAVWPDPEVFDPLRFSTENASKRHPFAFMPFSAGPRNCIGQQFAMSEMKVVTAMCLLRFEFSLDPSRLPIKMPQLVLRSKNGFHLHLKPLGPGSGK
- protein half-life [1]: 20 h
- 4-IPO processing activity / cell killing (in words) [2]: rendered this enzyme active for processing 4-IPO
- reduction in cell survival rates ([2]; transduced cells with 4-IPO, FIG. 2): about 50%
- cell survival rates upon administration of 4-IPO ([2]; transduced cells, FIG. 2): about 45%
- killing of primary T-cells with 4-IPO (in words) [3]: can be killed within three days

B3: h-S427: native human CYP4B1 protein with serine at position 427 (protein, listed as Homo sapiens)
chain: MVPSFLSLSFSSLGLWASGLILVLGFLKLIHLLLRRQTLAKAMDKFPGPPTHWLFGHALEIQETGSLDKVVSWAHQFPYAHPLWFGQFIGFLNIYEPDYAKAVYSRGDPKAPDVYDFFLQWIGRGLLVLEGPKWLQHRKLLTPGFHYDVLKPYVAVFTESTRIMLDKWEEKAREGKSFDIFCDVGHMALNTLMKCTFGRGDTGLGHRDSSYYLAVSDLTLLMQQRLVSFQYHNDFIYWLTPHGRRFLRACQVAHDHTDQVIRERKAALQDEKVRKKIQNRRHLDFLDILLGARDEDDIKLSDADLRAEVDTFMFEGHDTTTSGISWFLYCMALYPEHQHRCREEVREILGDQDFFQWDDLGKMTYLTMCIKESFRLYPPVPQVYRQLSKPVTFVDGRSLPAGSLISMHIYALHRNSAVWPDPEVFDSLRFSTENASKRHPFAFMPFSAGPRNCIGQQFAMSEMKVVTAMCLLRFEFSLDPSRLPIKMPQLVLRSKNGFHLHLKPLGPGSGK
- protein half-life [1]: 6 h
- activity to activate 4-IPO compared to the rabbit CYP4B1 [4]: > 1%
- activity to activate 4-IPO compared to the rabbit CYP4B1 ([4]; listed as human isoform): ≤ 1%
- 4-IPO processing activity / cell killing (in words) ([2]; listed as native CYP4B1 protein): comparable to the survival rate of non-transduced control cells
- 4-IPO processing activity / cell killing (in words) ([2]; listed as native human CYP4B1 S427 protein): cannot process 4-IPO at all
